Patent publication US20230129812A1, “COMPOSITIONS AND METHODS FOR TREATING PULMONARY HYPERTENSION” (Acceleron Pharma Inc., priority 2020, published 2023)
Each block holds one molecule with its values, some of them ahead of it.

Experiments:
GDF11 [1] = target: T1, GDF11 (Homo sapiens, UniProt O95390); test: Biacore ligand affinity of ActRIIB-hFc forms, steady-state affinity fit; format: binding
T1 sequence (O95390 299-407): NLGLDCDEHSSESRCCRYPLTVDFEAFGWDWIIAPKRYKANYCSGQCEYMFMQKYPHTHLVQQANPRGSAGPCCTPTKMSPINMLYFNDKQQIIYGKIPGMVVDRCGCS
Experimental: (§1) Affinities of several ligands for ActRIIB(25-131)-hFc and its full-length counterpart ActRIIB(20-134)-hFc were evaluated in vitro with a Biacore™ instrument, and the results are summarized in Table 8 below. Kd values were obtained by steady-state affinity fit due to very rapid association and dissociation of the complex, which prevented accurate determination of kon and koff. ActRIIB(25-131)-hFc bound, for example, activin A, activin B, and GDF11 with high affinity.
(§2) The affinity of ActRIIB variants and other ActRIIB-hFc proteins for several ligands was evaluated in vitro with a Biacore™ instrument. Kd values were obtained by steady-state affinity fit due to the very rapid association and dissociation of the complex, which prevented accurate determination of kon and koff.

activin A [2] = target: T2, activin A (Homo sapiens, UniProt P08476); test: as above; format: binding
T2 sequence (P08476 311-426): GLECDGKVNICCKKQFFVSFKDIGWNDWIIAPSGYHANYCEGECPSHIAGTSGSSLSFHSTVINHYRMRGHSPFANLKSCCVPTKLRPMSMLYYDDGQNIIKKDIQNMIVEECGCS
Experimental: as §1, §2

activin B [3] = target: T3, activin B (Homo sapiens, UniProt P09529); test: as above; format: binding
T3 sequence (P09529 293-407): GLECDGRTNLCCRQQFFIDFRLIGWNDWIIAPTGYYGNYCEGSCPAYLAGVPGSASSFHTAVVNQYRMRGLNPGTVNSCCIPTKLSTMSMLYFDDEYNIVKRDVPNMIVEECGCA
Experimental: as §1, §2

BMP10 [4] = target: T4, BMP10 (Homo sapiens, UniProt O95393); test: Biacore ligand affinity of ActRIIB-hFc variants (Example 10); format: binding
T4 sequence (O95393 317-424): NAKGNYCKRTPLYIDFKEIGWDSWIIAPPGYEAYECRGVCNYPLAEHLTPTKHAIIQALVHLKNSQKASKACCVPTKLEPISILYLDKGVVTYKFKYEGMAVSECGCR
Experimental: as §2

BMP6 [5] = target: T5, BMP6 (Homo sapiens, UniProt P22004); test: as above; format: binding
T5 sequence (P22004 375-513): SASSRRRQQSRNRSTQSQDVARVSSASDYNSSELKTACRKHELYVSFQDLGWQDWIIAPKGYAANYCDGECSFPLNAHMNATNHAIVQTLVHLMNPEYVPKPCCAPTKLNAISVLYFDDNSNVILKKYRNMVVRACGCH
Experimental: as §2

GDF8 [6] = target: T6, GDF8 (Homo sapiens, UniProt O14793); test: as above; format: binding
T6 sequence (O14793 267-375): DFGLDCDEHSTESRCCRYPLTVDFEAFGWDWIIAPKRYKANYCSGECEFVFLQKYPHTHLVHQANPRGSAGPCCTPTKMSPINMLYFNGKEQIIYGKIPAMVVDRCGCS
Experimental: as §2

[7] = In vivo activity of ActRIIA variant with substitution at X17; details: substitution of A for K at X17
GDF11 [8] = target: T1, GDF11; test: A-204 reporter gene assay, pGL3(CAGA)12 luciferase; format: cell-based; details: A-204 reporter gene assay
Excerpt: (§3) An A-204 reporter gene assay was used to evaluate the effects of ActRIIB-Fc proteins and ActRIIB variant Fc fusion polypeptides on signaling by GDF-11 and activin A. Cell line: human rhabdomyosarcoma (derived from muscle). Reporter vector: pGL3(CAGA)12 (described in Dennler et al, 1998, EMBO 17: 3091-3100). The CAGA12 motif is present in TGF-beta responsive genes (e.g., PAI-1 gene), so this vector is of general use for factors signaling through SMADs.
(§4) Day 1: Split A-204 cells into 48-well plate.
(§5) Day 2: A-204 cells transfected with 10 ug pGL3(CAGA)12 or pGL3(CAGA)12(10 ug)+pRLCMV (1 pg) and Fugene.
(§6) Day 3: Add factors (diluted into medium+0.1% BSA). Inhibitors need to be preincubated with factors for 1 hr before adding to cells. Six hrs later, cells were rinsed with PBS and lysed.
(§7) This is followed by a luciferase assay.
(§8) Activity of ActRIIB-Fc proteins and ActRIIB variant Fc fusion polypeptides was tested in a cell-based assay as described above. Some variants were tested in different C-terminal truncation constructs. As discussed above, truncations of five or fifteen amino acids caused reduction in activity. […]

activin A [9] = target: T2, activin A; test: A-204 reporter gene assay, pGL3(CAGA)12 luciferase; format: cell-based; details: A-204 reporter gene assay
Excerpt: as §3, §4, §5, §6, §7, §8

GDF8 [10] = target: T6, GDF8; test: A-204 reporter gene assay, pGL3(CAGA)12 luciferase; format: cell-based
Excerpt: as §3, §4, §5, §6, §7
As described below, ActRIIB variants were also tested in this assay.
(§9) In addition, an A-204 Reporter Gene Assay was used to evaluate the effects of ALK4-Fc:ActRIIB-Fc heterodimer and ActRIIB-Fc:ActRIIB-Fc homodimer on signaling by activin A, activin B, GDF11, GDF8, BMP10, and BMP9. Cell line: Human Rhabdomyosarcoma (derived from muscle). Reporter vector: pGL3(CAGA)12 (as described in Dennler et al, 1998, EMBO 17: 3091-3100). The CAGA12 motif is present in TGFβ responsive genes (PAI-1 gene), so this vector is of general use for factors signaling through Smads. An exemplary A-204 Reporter Gene Assay is outlined below. • Day 1: Split A-204 cells into 48-well plate. • Day 2: A-204 cells transfected with 10 ug pGL3(CAGA)12 or pGL3(CAGA)12(10 ug)+pRLCMV (1 ug) and Fugene. • Day 3: Add factors (diluted into medium+0.1% BSA). Inhibitors need to be pre-incubated with Factors for about one hr before adding to cells. About six hrs later, cells are rinsed with PBS and then lysed.
(§10) Following the above steps, a Luciferase assay was performed.

activin B [11] = target: T3, activin B; test: A-204 Reporter Gene Assay (Example 13); format: cell-based
Excerpt: as §9, §10

BMP10 [12] = target: T4, BMP10; test: Biacore ligand binding profile, ALK4-Fc:ActRIIB-Fc heterodimer vs homodimers, anti-Fc capture (Example 13, Table 13); details: ligand BMP10, Table 13
Experimental: (§11) A Biacore™-based binding assay was used to compare ligand binding selectivity of the ALK4-Fc:ActRIIB-Fc heterodimeric complex described above with that of ActRIIB-Fc and ALK4-Fc homodimer complexes. The ALK4-Fc:ActRIeB-Fc heterodimer, […], and ALK4-Fc homodimer were independently captured onto the system using an anti-Fc antibody. Ligands were injected and allowed to flow over the captured receptor protein. Results are summarized in Table 13 below, in which ligand off-rates (kd) most indicative of effective polypeptides are denoted in bold.

BMP6 [13] = target: T5, BMP6; test: as above
Experimental: as §11

BMP9 = target: T7, BMP9 (Homo sapiens, UniProt Q9UK05); test: as above
T7 sequence (Q9UK05 320-429): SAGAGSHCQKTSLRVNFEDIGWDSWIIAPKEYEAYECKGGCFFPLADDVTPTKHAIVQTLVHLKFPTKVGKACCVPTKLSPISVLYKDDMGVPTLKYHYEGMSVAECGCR
Experimental: as §11

GDF11 [14] = target: T1, GDF11; test: as above
Experimental: as §11

GDF3 = target: T8, GDF3 (Homo sapiens, UniProt Q9NR23); test: as above; details: ligand GDF3, Table 13
T8 sequence (Q9NR23 251-364): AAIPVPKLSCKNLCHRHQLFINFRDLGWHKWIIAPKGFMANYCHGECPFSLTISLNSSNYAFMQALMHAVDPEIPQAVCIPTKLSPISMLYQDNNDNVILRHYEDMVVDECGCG
Experimental: as §11

GDF8 [15] = target: T6, GDF8; test: as above
Experimental: as §11

activin A [16] = target: T2, activin A; test: as above
Experimental: as §11

activin B [17] = target: T3, activin B; test: as above; details: ligand Activin B, Table 13
Experimental: as §11

GDF11 binding (GDF11 [1]; Biacore): nearly full retention of GDF11 binding
Kd (GDF11 [1]; Table 12, Kd by steady-state affinity fit, read-out: GDF11 (Kd e−11)): 0.074 nM
activin A binding (activin A [2]; Biacore): pronounced loss of activin A binding
Kd (activin A [2]; Table 12, Kd by steady-state affinity fit, read-out: Activin A (Kd e−11)): 22.9 nM
activin B binding (activin B [3]; Biacore): partial loss of activin B binding
Kd (activin B [3]; Table 12, Kd by steady-state affinity fit, read-out: Activin B (Kd e−11)): 0.621 nM
BMP10 binding (BMP10 [4]): strong to intermediate binding
BMP6 binding (BMP6 [5]): strong to intermediate binding
GDF8 binding (GDF8 [6]): strong to intermediate binding
B1: ActRIIB(L79D 25-131)-hFc: truncated ActRIIB extracellular domain (residues 25-131) with L79D substitution fused to human Fc (protein)
chain: ETRECIYYNANWELERTNQSGLERCEGEQDKRLHCYASWRNSSGTIELVKKGCWDDDFNCYDRQECVATEENPQVYFCCCEGNFCNERFTHLPEAGGPEVTYEPPPTGGGTHTCPPCPAPELLGGPSVFLFPPKPKDTLMISRTPRVTCVVVDVSHEDPEVKFNWYVDGVEVHNAKTKPREEQYNSTYRVVSVLTVLHQDWLNGKEYKCKVSNKALPAPIEKTISKAKGQPREPQVYTLPPSREEMTKNQVSLTCLVKGFYPSDIAVEWESNGQPENNYKTTPPVLDSDGSFFLYSKLTVDKSRWQQGNVFSCSVMHEALHNHYTQKSLSLSPGK

B2: SEQ ID NO: 283: ActRIIA variant with alanine (A) substituted for lysine (K) at X17 (protein)
chain: GAILGRSETQECLFYNANWELERTNQTGVERCEGEKDKRLHCYATWRNISGSIEIVAKGCWLDDFNCYDRTDCVETEENPQVYFCCCEGNMCNEKFSYFPEMEVTQPTS
activity in vivo [7]: reduced activity in vivo

inhibition of GDF11 signaling (GDF11 [8]): potent inhibitors
inhibition of activin A signaling (activin A [9]): potent inhibitors
inhibition of GDF8 signaling (GDF8 [10]): potent inhibitors
inhibition of activin B signaling (activin B [11]): potent inhibitors
ka (BMP10 [12]): 2.3 × 10^7 1/MS
kd (BMP10 [12]): 0.00026 s⁻¹
BMP6 binding (BMP6 [13]; Example 13): intermediate-level binding
ka (BMP6 [13]; ligand BMP6, Table 13): 3.2 × 10^7 1/MS
kd (BMP6 [13]; ligand BMP6, Table 13): 0.0068 s⁻¹
BMP9 binding (BMP9; Example 13): binds strongly
ka (BMP9; ligand BMP9, Table 13): 1.4 × 10^7 1/MS
kd (BMP9; ligand BMP9, Table 13): 0.0011 s⁻¹
GDF11 binding (GDF11 [14]; Example 13): strong binding
ka (GDF11 [14]; ligand GDF11, Table 13): 5.0 × 10^7 1/MS
kd (GDF11 [14]; ligand GDF11, Table 13): 0.00011 s⁻¹
ka (GDF3): 1.4 × 10^6 1/MS
kd (GDF3): 0.0022 s⁻¹
GDF8 binding (GDF8 [15]; Example 13): strong binding
ka (GDF8 [15]; ligand GDF8, Table 13): 8.3 × 10^5 1/MS
kd (GDF8 [15]; ligand GDF8, Table 13): 0.00023 s⁻¹
activin A binding (activin A [16]; Example 13): strong binding
ka (activin A [16]; ligand Activin A, Table 13): 1.2 × 10^7 1/MS
kd (activin A [16]; ligand Activin A, Table 13): 0.00023 s⁻¹
ka (activin B [17]): 5.1 × 10^6 1/MS
kd (activin B [17]): 0.0001 s⁻¹
B3: ActRIIB-Fc homodimer: ActRIIB-Fc homodimer complex used as comparator in Example 13 (protein)
chain: GRGEAETRECIYYNANWELERTNQSGLERCEGEQDKRLHCYASWRNSSGTIELVKKGCWLDDFNCYDRQECVATEENPQVYFCCCEGNFCNERFTHLPEAGGPEVTYEPPPTAPTGGGTHTCPPCPAPELLGGPSVFLFPPKPKDTLMISRTPEVTCVVVDVSHEDPEVKFNWYVDGVEVHNAKTKPREEQYNSTYRVVSVLTVLHQDWLNGKEYKCKVSNKALPVPIEKTISKAKGQPREPQVYTLPPSREEMTKNQVSLTCLVKGFYPSDIAVEWESNGQPENNYKTTPPVLDSDGSFFLYSKLTVDKSRWQQGNVFSCSVMHEALHNHYTQKSLSLSPGK
